No end group written: not given here.
Legend:
[1] = target: N-terminally biotinylated HSP27 IXI peptide 178…186 (F185H), unmodified (human); assay: SPR
[2] = target: HSP27 alpha crystallin domain (ACD) (human); assay: ITC

Molecule	Kd [1]	Kd [2]
HSP27 alpha crystallin domain (ACD) (domain or fragment)	3.14 µM	
EITIPVTHE (not fully specified) [HSP27 IXI peptide 178…186 (F185H), unmodified, without biotin]		14.3 µM

Reference: publication PMC8102337
